In patent US20110130836A1, “Compositions and Methods for Use of Scar Tissue in Repair of Weight Bearing Surfaces” (LANX, INC., priority 2008, published 2011):

Biological target: T1, BMP-2 (Homo sapiens, UniProt P12643)
T1 sequence (P12643 283-396): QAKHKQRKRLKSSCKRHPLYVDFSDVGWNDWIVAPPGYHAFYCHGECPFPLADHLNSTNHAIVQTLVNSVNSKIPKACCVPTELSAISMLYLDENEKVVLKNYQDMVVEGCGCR
Assay: Inhibition of BMP-2 effects by SPP-24
Settings: 50-fold (w/w) excess of SPP-24
Description: Lyophilized SPP-24 is ground into a fine powder and combined with DBM. […] However, concentrations of growth factors in DBM vary by lot and preparation methodology. For example, Wildemann et al. reports BMP-2 concentrations of 0.004 g BMP-2 per gram total protein. Wildemann et al. (2007) Quantification of various growth factors in different demineralized bone matrix preparations. J. of Biomed. Mat. Res. Part A. 81A(2): 437-442. Thus, SPP to DBM ratios range from about 1:10 to about 2:1, for example, about 1:10, about 1:8, about 1:7, about 1:6, about 1:5, about 1:4, about 1:3, about 1:2, about 1:1, and about 2:1.

B1: secreted phosphoprotein 24 (protein, UniProt Q13103 30-211, looked up)
Secreted phosphoprotein 24: FPVYDYDPSSLRDALSASVVKVNSQSLSPYLFRAFRSSLKRVEVLDENNLVMNLEFSIRETTCRKDSGEDPATCAFQRDYYVSTAVCRSTVKVSAQQVQGVHARCSWSSSTSESYSSEEMIFGDMLGSHKWRNNYLFGLISDESISEQFYDRSLGIMRRVLPPGNRRYPNHRHRARINTDFE
notes: BMP-2 antagonist
effects of BMP-2: completely ablates
